Patent US20260070976A1

Key:
[1] = molecular target: recombinant cynomolgus PILRB (cynomolgus monkey); assay: SPR, Carterra LSA, antibody amine-coupled, kinetic fit
[2] = molecular target: recombinant cynomolgus PILRB (cynomolgus monkey); assay: SPR, Biacore T200, antibody captured by anti-Fab

Binder	Kd [1] [nM]	Kd [2] [nM]
X11 (antibody, human IgG4, V domains shown) VH: QVQLVQSGAEVKKPGSSVKVSCKASGYNFLNYDVNWVRQAPGQGLEWMGGIIPIFGTANYAQKFQGRVTITADESTSTAYMELSSLRSEDTAVYYCATGVGAGWFDPWGQGTLVTVSS VL: DIVMTQSPDSLAVSLGERATINCKSSQSVYFSENNKNYLAWYQQKPGQPPKLLIYWASTRESGVPDRFSGSGSGTDFTLTISSLQAEDVAVYYCQQYYEEPYTFGQGTRLEIK	0.5	0.4
X7 (antibody, human IgG4, V domains shown) VH: QVQLVQSGAEVKKPGSSVKVSCKASGYNFLNYDVNWVRQAPGQGLEWMGGIIPIFGTANYAQKFQGRVTITADESTSTAYMELSSLRSEDTAVYYCATGVGAGWFDPWGQGTLVTVSS VL: DIVMTQSPDSLAVSLGERATINCKSSQSVFFDENNKNYLAWYQQKPGQPPKLLIYWASTRESGVPDRFSGSGSGTDFTLTISSLQAEDVAVYYCQQYFEEPYTFGQGTRLEIK	0.5	
X17 (antibody, human IgG4, V domains shown) VH: QVQLVQSGAEVKKPGSSVKVSCKASGYNFLHYDVNWVRQAPGQGLEWMGGIIPIFGTANYAQKFQGRVTITADESTSTAYMELSSLRSEDTAVYYCATAVGAGWFDTWGQGTLVTVSS VL: DIVMTQSPDSLAVSLGERATINCKSSQSVFFDENNKNYLAWYQQKPGQPPKLLIYWASTRESGVPDRFSGSGSGTDFTLTISSLQAEDVAVYYCQQYFEEPYTFGQGTRLEIK	0.3	

Continued, values first:

Kd [1] [nM]	Kd [2] [nM]	Binder
0.1		X20 (antibody, human IgG4, V domains shown) VH: QVQLVQSGAEVKKPGSSVKVSCKASGYNFLHYDVNWVRQAPGQGLEWMGGIIPIFGTANYAQKFQGRVTITADESTSTAYMELSSLRSEDTAVYYCATAVGAGWFDPWGQGTLVTVSS VL: DIVMTQSPDSLAVSLGERATINCKSSQSVYFSENNKNYLAWYQQKPGQPPKLLIYWASTRESGVPDRFSGSGSGTDFTLTISSLQAEDVAVYYCQQYYEEPYTFGQGTRLEIK
0.3		X4 (antibody, human IgG4, V domains shown) VH: QVQLVQSGAEVKKPGSSVKVSCKASGYNFLNYDVNWVRQAPGQGLEWMGGIIPIFGTANYAQKFQGRVTITADESTSTAYMELSSLRSEDTAVYYCATGVGAGWFDPWGQGTLVTVSS VL: DIVMTQSPDSLAVSLGERATINCKSSQSVYFSPNNKNYLAWYQQKPGQPPKLLIYWASTRESGVPDRFSGSGSGTDFTLTISSLQAEDVAVYYCQQYFEEPYTFGQGTRLEIK
0.2		X14 (antibody, human IgG4, V domains shown) VH: QVQLVQSGAEVKKPGSSVKVSCKASGYNFLHYDVNWVRQAPGQGLEWMGGIIPIFGTANYAQKFQGRVTITADESTSTAYMELSSLRSEDTAVYYCATAVGAGWFDTWGQGTLVTVSS VL: DIVMTQSPDSLAVSLGERATINCKSSQSVYFSPNNKNYLAWYQQKPGQPPKLLIYWASTRESGVPDRFSGSGSGTDFTLTISSLQAEDVAVYYCQQYFEEPYTFGQGTRLEIK
0.3		X18 (antibody, human IgG4, V domains shown) VH: QVQLVQSGAEVKKPGSSVKVSCKASGYNFLHYDVNWVRQAPGQGLEWMGGIIPIFGTANYAQKFQGRVTITADESTSTAYMELSSLRSEDTAVYYCATAVGAGWFDTWGQGTLVTVSS VL: DIVMTQSPDSLAVSLGERATINCKSSQSVWFDPNNKNYLAWYQQKPGQPPKLLIYWASTRESGVPDRFSGSGSGTDFTLTISSLQAEDVAVYYCQQYFEEPYTFGQGTRLEIK
